± gives the standard deviation of the averaged measurements.
Assays:
[1] = system: Saccharomyces cerevisiae; assay: protein stability index of tFT-peptide fusion in wild type (PSI (0-1 scale)); higher = more stable (slower turnover); conditions: genetic background: wild type
Procedure: (§1)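 MPS profiling in S. cerevisiae of two library types built from selected 12-aa C-degron peptides (IN1, IN2, LN1, LN3, VN2, R1-R5, W1-W3, Atg1 and Rpa12 C-termini): saturation mutagenesis libraries and C-terminal +1 capping libraries (13 aa). Each peptide is fused to the C-terminus of a sfGFP-mCherry timer, after a GGGS linker. Cells are FACS-sorted into 8 mCherry/sfGFP bins and sequenced. PSI runs from 0 (unstable) to 1 (stable), measured once in wild type and in the das1Δ or doa10Δ background.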

[2] = system: Saccharomyces cerevisiae; assay: protein stability index of tFT-peptide fusion in deletion strain of DAS1 (PSI (0-1 scale)); higher = more stable (slower turnover)
Procedure: as §1

[3] = system: Saccharomyces cerevisiae; assay: protein stability index of tFT-peptide fusion (C-terminal peptide) (PSI (0-1 scale)); higher = more stable (slower turnover); conditions: temperature: 30 C
Procedure: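 MPS profiling in S. cerevisiae of the yeast C-terminome library: the last 12 aa of each annotated ORF are fused to the C-terminus of a sfGFP-mCherry timer, after a GGGS linker. Cells are FACS-sorted into 8 mCherry/sfGFP bins and deep-sequenced. PSI runs from 0 (unstable) to 1 (stable); wild type and das1Δ backgrounds, two technical replicates each.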

[4] = genetic background: das1 deletion
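For protein stability index of tFT-peptide fusion in deletion strain of DAS1 in this document: PSI is a weighted mean of each variant's read distribution over the sorted stability bins, computed only for variants having over 10 reads in total.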
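For protein stability index of tFT-peptide fusion in wild type in this document: PSI derived as read-weighted mean over the 8 sorting bins, only variants exceeding 10 total reads kept, mCherry placed adjacent to the peptide and sfGFP distal.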

Sequence | protein stability index [1] | protein stability index [2] | protein stability index [3, 4] | protein stability index ([3]; genetic background: wild type)
AMWRVGLWRGAS | 0.43 | 0.65 |  | 
AQWRVGLWRGAS | 0.499 | 0.709 |  | 
ARWREGLWRGAS | 0.673 | 0.695 |  | 
ARWRVGCWRGAS | 0.524 | 0.637 |  | 
ARWRVGDWRGAS | 0.665 | 0.714 |  | 
ARWRVGIWRGAS | 0.344 | 0.691 |  | 
ARWRVGKWRGAS | 0.327 | 0.687 |  | 
ARWRVGLCRGAS | 0.657 | 0.671 |  | 
ARWRVGLHRGAS | 0.63 | 0.685 |  | 
ARWRVGLIRGAS | 0.561 | 0.665 |  | 
ARWRVGLWLGAS | 0.467 | 0.618 |  | 
ARWRVGLWMGAS | 0.622 | 0.667 |  | 
ARWRVGLWRGAG | 0.254 | 0.64 |  | 
ARWRVGLWRGAH | 0.536 | 0.688 |  | 
ARWRVGLWRGASE | 0.663 | 0.666 |  | 
ARWRVGLWRGASL | 0.719 | 0.715 |  | 
ARWRVGLWRGASN | 0.658 | 0.689 |  | 
ARWRVGLWRGASY | 0.653 | 0.69 |  | 
ARWRVGLWRGDS | 0.667 | 0.688 |  | 
ARWRVGLWRGMS | 0.202 | 0.663 |  | 
ARWRVGLWRIAS | 0.088 | 0.677 |  | 
ARWRVGLWRQAS | 0.0958 | 0.678 |  | 
ARWRVGLWRVAS | 0.0841 | 0.67 |  | 

Sequence | protein stability index [1] | protein stability index [2] | protein stability index [3, 4] | protein stability index ([3]; genetic background: wild type)
ARWRVGLWYGAS | 0.603 | 0.718 |  | 
ARWRVGVWRGAS | 0.304 | 0.686 |  | 
ARWWVGLWRGAS | 0.508 | 0.742 |  | 
CDSCGYKFRTNN | 0.251 | 0.691 |  | 
CKHKKGQKQKIN | 0.0815 | 0.568 |  | 
CTMCGYKFRTNN | 0.236 | 0.69 |  | 
CTSAGYKFRTNN | 0.303 | 0.678 |  | 
CTSCGHKFRTNN | 0.256 | 0.706 |  | 
CTSCGRKFRTNN | 0.456 | 0.717 |  | 
CTSCGSKFRTNN | 0.549 | 0.692 |  | 
CTSCGYKFLTNN | 0.332 | 0.696 |  | 
CTSCGYKFQTNN | 0.175 | 0.723 |  | 
CTSCGYKFRSNN | 0.508 | 0.715 |  | 
CTSCGYKFRTGN | 0.581 | 0.701 |  | 
CTSCGYKFRTNI | 0.601 | 0.701 |  | 
CTSCGYKFRTNNL | 0.723 | 0.715 |  | 
CTSCGYKFRTNNQ | 0.681 | 0.673 |  | 
CTSCGYKFRTNV | 0.53 | 0.681 |  | 
CTSCGYKFRTWN | 0.288 | 0.727 |  | 
CTSCGYTFRTNN | 0.245 | 0.708 |  | 
CTSCIYKFRTNN | 0.163 | 0.666 |  | 
CTSCPYKFRTNN | 0.261 | 0.666 |  | 
CTSYGYKFRTNN | 0.145 | 0.688 |  | 

Sequence | protein stability index [1] | protein stability index [2] | protein stability index [3, 4] | protein stability index ([3]; genetic background: wild type)
EKHKKGQKQKIN | 0.178 | 0.613 |  | 
FKMRWTFRYWVN | 0.119 | 0.735 |  | 
VKTKFFPLSSSI [YDR199W C-terminal 12 aa] |  |  | 0.738 ± 0.02 | 0.716 ± 0.026
VKWKVLCDLGWT [YIL047C-A C-terminal 12 aa] |  |  | 0.715 ± 0.023 | 0.708 ± 0.028
VKYSRIIPPDIR [SUM1 C-terminal 12 aa] |  |  | 0.72 ± 0.017 | 0.69 ± 0.032
VLDEEFRNNNAS [RAD26 C-terminal 12 aa] |  |  | 0.716 ± 0.0098 | 0.69 ± 0.038
VLELSLGFTKLD [MON2 C-terminal 12 aa] |  |  | 0.7141 ± 0.0071 | 0.707 ± 0.041
VLFLEDNGFFVF [MET3 C-terminal 12 aa] |  |  | 0.765 ± 0.024 | 0.775 ± 0.037
VLIKHDHTNTHI [MMT1 C-terminal 12 aa] |  |  | 0.703 ± 0.028 | 0.701 ± 0.034
VMEEEEQDCKCI [POP8 C-terminal 12 aa] |  |  | 0.6923 ± 0.00099 | 0.6519 ± 0.0055
VMGQFLPIFEMD [GSM1 C-terminal 12 aa] |  |  | 0.724 ± 0.031 | 0.713 ± 0.0046
VRILTKYPKILV [RIM101 C-terminal 12 aa] |  |  | 0.488 ± 0.021 | 0.5 ± 0.0066
VSGKKFQNVRVL [YPL247C C-terminal 12 aa] |  |  | 0.705 ± 0.01 | 0.676 ± 0.04
VSLDNLPGVEKK [SUA7 C-terminal 12 aa] |  |  | 0.682 ± 0.022 | 0.683 ± 0.014
VSLLLNSLALFF [YGL204C C-terminal 12 aa] |  |  | 0.688 ± 0.021 | 0.6623 ± 0.0058
VSNLEVLEELFP [DPI35 C-terminal 12 aa] |  |  | 0.722 ± 0.015 | 0.7123 ± 0.0038
VTEAESTASAST [BUD20 C-terminal 12 aa] |  |  | 0.7 ± 0.013 | 0.6926 ± 0.006
VVEKVSSITNRN [SRF1 C-terminal 12 aa] |  |  | 0.6869 ± 0.0056 | 0.669 ± 0.065
VVPAVLFAFLLV [YDL118W C-terminal 12 aa] |  |  | 0.446 ± 0.0098 | 0.4 ± 0.0053
VYENNSYPNSHT [RTT105 C-terminal 12 aa] |  |  | 0.6964 ± 0.0011 | 0.678 ± 0.023
WDKQKALERRSV [CNS1 C-terminal 12 aa] |  |  | 0.723 ± 0.015 | 0.705 ± 0.024
WGSIGQKLRRSA [YOL118C C-terminal 12 aa] |  |  | 0.704 ± 0.012 | 0.728 ± 0.015
WLRKWLSTFVHQ [YNL018C C-terminal 12 aa] |  |  | 0.732 ± 0.042 | 0.23 ± 0.022

Sequence | protein stability index [1] | protein stability index [2] | protein stability index [3, 4] | protein stability index ([3]; genetic background: wild type)
WRRSKSISTHLR [YLR366W C-terminal 12 aa] |  |  | 0.711 ± 0.0074 | 0.681 ± 0.034
WSPLHAAKRHRI [MRPL51 C-terminal 12 aa] |  |  | 0.692 ± 0.014 | 0.695 ± 0.02
YAGHRFHDGNKL [ERR1 C-terminal 12 aa] |  |  | 0.726 ± 0.009 | 0.737 ± 0.043
YAINSGARFDLS [HUL5 C-terminal 12 aa] |  |  | 0.713 ± 0.025 | 0.687 ± 0.0069
YANAPIEEKPLI [PUN1 C-terminal 12 aa] |  |  | 0.702 ± 0.018 | 0.683 ± 0.017
YDYLINNKTIFD [POF1 C-terminal 12 aa] |  |  | 0.722 ± 0.022 | 0.736 ± 0.022
YEEGESIFGSLF [REV7 C-terminal 12 aa] |  |  | 0.71 ± 0.029 | 0.7145 ± 0.0024
YENEEIQRKRCI [YOR364W C-terminal 12 aa] |  |  | 0.696 ± 0.017 | 0.658 ± 0.0062
YFSSNISMKTEN [REB1 C-terminal 12 aa] |  |  | 0.7171 ± 0.0057 | 0.7373 ± 0.0014
YIKKSAKKGDKN [YHR140W C-terminal 12 aa] |  |  | 0.676 ± 0.032 | 0.65 ± 0.016
YKAVSVSANSPE [SOG2 C-terminal 12 aa] |  |  | 0.689 ± 0.016 | 0.673 ± 0.032
YKNNWLILQQQD [KSP1 C-terminal 12 aa] |  |  | 0.694 ± 0.066 | 0.703 ± 0.082
YNGGGKKLDGFW [YSP3 C-terminal 12 aa] |  |  | 0.7015 ± 0.0059 | 0.691 ± 0.025
YNKICSLASRVI [MRPL38 C-terminal 12 aa] |  |  | 0.669 ± 0.0074 | 0.673 ± 0.017
YPVDKEGDIVLE [THP2 C-terminal 12 aa] |  |  | 0.679 ± 0.0084 | 0.662 ± 0.039
YQCSETSTPRNT [GIC1 C-terminal 12 aa] |  |  | 0.723 ± 0.025 | 0.675 ± 0.012
YRIIDCVIAQLP [NVJ3 C-terminal 12 aa] |  |  | 0.669 ± 0.045 | 0.655 ± 0.046
YSDGRNYKESSI [CSS3 C-terminal 12 aa] |  |  | 0.69 ± 0.037 | 0.656 ± 0.045
YSILWSDVYPDS [PDR1 C-terminal 12 aa] |  |  | 0.7408 ± 0.0068 | 0.754 ± 0.013
YTINYETNTVEY [NUP133 C-terminal 12 aa] |  |  | 0.641 ± 0.024 | 0.6455 ± 0.0026
YVKEAQSVVTSL [YIR043C C-terminal 12 aa] |  |  | 0.672 ± 0.013 | 0.659 ± 0.029
YVSHKGFIVEDM [RPL9B C-terminal 12 aa] |  |  | 0.695 ± 0.0088 | 0.6932 ± 0.006
YWRKQYPDADIP [YCR007C C-terminal 12 aa] |  |  | 0.71925 ± 0.00051 | 0.747 ± 0.025
